{"source": "paper PMC5793882", "about": "(Cell, 2018)", "proteins": {"B1": {"name": "Drosophila Arc1 protein (natural protein, UniProt Q7K1U0 1-254, looked up)", "chain": "MAQLTQMTNEQLRELIEAVRAAAVGAAGSAAAAGGADASRGKGNFSACTHSFGGTRDHDVVEEFIGNIETYKDVEGISDENALKGISLLFYGMASTWWQGVRKEATTWKEAIALIREHFSPTKPAYQIYMEFFQNKQDDHDPIDTFVIQKRALLAQLPSGRHDEETELDLLFGLLNIKYRKHISRHSVHTFKDLLEQGRIIEHNNQEDEEQLATAKNTRGSKRTTRCTYCSFRGHTFDNCRKRQKDRQEEQHEE"}}, "molecular_target": "the molecule itself", "test": "negative-stain electron microscopy", "data": [{"protein": "B1", "values": [{"measurement": "binding result", "value": "binds"}]}]}
